One assay addresses T1, huBTN3A2 (human, UniProt P78410 30-248, limits assumed).
T1 construct: Sourced antigen; construct not described; also called Human BTN3A2
Briefly: ELISA, absorbance 450 nm, antigen human BTN3A2 GST.

In the next assay the target is T2, huB7-H2 (human, UniProt O75144 19-258).
T2 construct: Sourced antigen; construct not described; also called Human B7-H2
T2 sequence (looked up): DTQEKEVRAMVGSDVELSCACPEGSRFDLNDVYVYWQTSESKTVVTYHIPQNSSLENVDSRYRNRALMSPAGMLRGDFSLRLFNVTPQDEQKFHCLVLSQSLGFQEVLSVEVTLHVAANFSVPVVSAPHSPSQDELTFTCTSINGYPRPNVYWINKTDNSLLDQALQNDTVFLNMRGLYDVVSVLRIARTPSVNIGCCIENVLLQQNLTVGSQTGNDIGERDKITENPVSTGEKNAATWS
Description: ELISA, absorbance 450 nm, antigen human B7-H2 (ECD) F10H. In general terms: An ELISA detects its analyte on a solid surface through an enzyme-linked reagent.

The next assay concerns the target T3, huHHLA2 (human, UniProt Q9UM44 23-344).
T3 construct: Sourced antigen; construct not described; also called Human HHLA2
T3 sequence (looked up): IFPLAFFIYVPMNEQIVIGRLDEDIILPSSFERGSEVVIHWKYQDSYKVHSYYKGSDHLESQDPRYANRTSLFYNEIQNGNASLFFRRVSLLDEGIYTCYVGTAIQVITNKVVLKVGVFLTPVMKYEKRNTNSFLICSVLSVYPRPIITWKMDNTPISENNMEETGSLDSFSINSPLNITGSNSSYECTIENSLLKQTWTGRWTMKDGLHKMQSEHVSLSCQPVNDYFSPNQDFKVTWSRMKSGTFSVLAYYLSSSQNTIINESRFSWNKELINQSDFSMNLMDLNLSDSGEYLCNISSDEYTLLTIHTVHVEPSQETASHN
Briefly: ELISA, absorbance 450 nm, antigen human HHLA2 GST.

The target in another assay is T4, huB7-H1 (human, UniProt Q9NZQ7 19-238).
T4 construct: Sourced antigen; construct not described; also called Human B7-H1
Description: ELISA, absorbance 450 nm, antigen human B7-H1(ECD) F10H.

The target of a further assay is T5, huBTN1A1 (human, UniProt Q13410 27-242, limits assumed).
T5 construct: Sourced antigen; construct not described; also called Human BTN1A1
T5 sequence (looked up): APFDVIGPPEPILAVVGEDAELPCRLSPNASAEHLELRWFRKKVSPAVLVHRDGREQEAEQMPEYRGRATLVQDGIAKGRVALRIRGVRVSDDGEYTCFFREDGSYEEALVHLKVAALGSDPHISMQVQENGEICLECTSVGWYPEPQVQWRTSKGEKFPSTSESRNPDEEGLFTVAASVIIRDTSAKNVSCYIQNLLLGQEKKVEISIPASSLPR
Briefly: ELISA, absorbance 450 nm, antigen human BTN1A1 GST.

Another assay addresses T6, huB7-H3 (human, UniProt Q5ZPR3 29-461, limits assumed).
T6 construct: Sourced antigen; construct not described; also called Human B7-H3
T6 sequence (looked up): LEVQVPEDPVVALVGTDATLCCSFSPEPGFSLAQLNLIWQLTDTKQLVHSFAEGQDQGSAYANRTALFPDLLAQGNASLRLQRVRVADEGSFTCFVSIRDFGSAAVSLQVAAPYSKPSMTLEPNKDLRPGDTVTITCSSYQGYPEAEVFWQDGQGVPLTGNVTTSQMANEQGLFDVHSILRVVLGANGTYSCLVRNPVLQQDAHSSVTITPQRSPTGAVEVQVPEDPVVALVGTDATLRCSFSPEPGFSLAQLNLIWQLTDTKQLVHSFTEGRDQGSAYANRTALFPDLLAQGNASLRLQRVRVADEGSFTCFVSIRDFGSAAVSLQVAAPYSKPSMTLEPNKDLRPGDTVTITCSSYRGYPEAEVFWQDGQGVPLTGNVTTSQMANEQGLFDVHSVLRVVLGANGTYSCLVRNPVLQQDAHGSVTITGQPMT
Briefly: ELISA, absorbance 450 nm, antigen human B7-H3 (ECD) Fc.

Assay [1] has as its target T7, Cyno B7-H4-Fc (Cyno B7H4 ECD, FcTM_6His) (cynomolgus monkey).
T7 construct: extracellular domain; also called cynomolgus B7-H4-Fc
Briefly: HTRF binding, murine IgG1. A general note: TR-FRET usually uses a lanthanide donor and a delayed reading to cut background.

The target of a further assay is T8, huBTNL3 (human, UniProt Q6UXE8 18-237, limits assumed).
T8 construct: Sourced antigen; construct not described; also called Human BTNL3
T8 sequence (looked up): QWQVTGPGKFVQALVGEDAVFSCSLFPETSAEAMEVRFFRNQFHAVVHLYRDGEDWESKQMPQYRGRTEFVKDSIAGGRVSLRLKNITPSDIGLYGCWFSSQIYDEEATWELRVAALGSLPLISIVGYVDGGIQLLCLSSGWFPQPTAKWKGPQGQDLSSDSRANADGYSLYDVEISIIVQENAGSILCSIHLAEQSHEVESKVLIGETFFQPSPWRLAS
Description: ELISA.

The next assay concerns the target T9, huBTN2A1 (human, UniProt Q7KYR7 29-248, limits assumed).
T9 construct: Sourced antigen; construct not described; also called Human BTN2A1
T9 sequence (looked up): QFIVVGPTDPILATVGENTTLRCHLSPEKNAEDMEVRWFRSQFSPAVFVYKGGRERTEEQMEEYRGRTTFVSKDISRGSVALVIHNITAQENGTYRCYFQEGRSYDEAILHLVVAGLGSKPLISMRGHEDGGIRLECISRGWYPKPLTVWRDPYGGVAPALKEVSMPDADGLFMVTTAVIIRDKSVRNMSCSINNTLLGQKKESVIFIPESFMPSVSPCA
Description: ELISA.

The target in assay [2] is T10, Human B7-H4-Fc (Human B7H4 ECD, Fc_6His) (human).
T10 construct: also called FcHis6 tagged human B7-H4
T10 sequence (Q7Z7D3 whole entry, looked up): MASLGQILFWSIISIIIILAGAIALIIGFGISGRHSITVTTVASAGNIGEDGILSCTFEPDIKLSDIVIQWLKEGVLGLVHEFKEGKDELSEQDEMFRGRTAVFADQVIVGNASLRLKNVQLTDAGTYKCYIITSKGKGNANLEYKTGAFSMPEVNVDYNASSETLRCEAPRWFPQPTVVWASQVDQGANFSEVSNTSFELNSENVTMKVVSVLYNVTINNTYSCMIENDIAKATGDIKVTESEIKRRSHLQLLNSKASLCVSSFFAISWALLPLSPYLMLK
Description: HTRF binding, murine IgG1.

Assay [3] addresses T11, Murine B7-H4-Fc (Mouse B7H4 ECD, Fc_6His) (mouse, UniProt Q7TSP5 25-257).
T11 construct: extracellular domain; also called mouse B7-H4-Fc; FcHis6 tagged murine B7-H4
T11 sequence (Q7TSP5 whole entry, looked up): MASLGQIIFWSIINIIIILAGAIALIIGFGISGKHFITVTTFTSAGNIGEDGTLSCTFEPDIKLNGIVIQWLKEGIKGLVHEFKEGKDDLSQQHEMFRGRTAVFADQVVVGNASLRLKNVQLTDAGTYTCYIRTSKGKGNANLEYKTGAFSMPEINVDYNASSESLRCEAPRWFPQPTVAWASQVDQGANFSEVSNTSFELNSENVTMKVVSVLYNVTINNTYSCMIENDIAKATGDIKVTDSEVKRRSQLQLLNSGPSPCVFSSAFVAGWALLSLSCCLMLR
Briefly: HTRF binding, murine IgG1.

T4 sequence (Q9NZQ7 19-238 limits assumed): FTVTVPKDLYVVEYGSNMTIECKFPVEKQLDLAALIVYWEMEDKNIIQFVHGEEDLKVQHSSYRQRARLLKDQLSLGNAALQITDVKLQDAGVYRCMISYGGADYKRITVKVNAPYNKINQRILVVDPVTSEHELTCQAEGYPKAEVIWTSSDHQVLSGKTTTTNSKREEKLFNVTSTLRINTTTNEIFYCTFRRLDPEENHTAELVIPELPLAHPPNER
T1 sequence (P78410 30-248 limits assumed): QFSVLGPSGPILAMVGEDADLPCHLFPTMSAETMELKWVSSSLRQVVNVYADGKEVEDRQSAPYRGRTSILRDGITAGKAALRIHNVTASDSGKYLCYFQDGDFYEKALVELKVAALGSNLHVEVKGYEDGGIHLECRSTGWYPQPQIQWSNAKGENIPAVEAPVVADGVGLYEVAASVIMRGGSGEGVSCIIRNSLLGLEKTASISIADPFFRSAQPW

B1: human ZY0EP0-C07 (antibody, V domains shown)
VH: QVQLVESGGVLVKPGGSLRLSCAASGFTLSDYYMSWIRQAPGMGLEWVSYISSSGSTIYYTDSVKGRFTISRDSAKNSLYLQMNSLRAEDTAVYYCARDGVGFDYWGQGTLVTVSS
VL: EIVLTQSPGTLSLFPGERATLSCRASQSVSSSYLAWYQQKPGQSPRLLIYAASSRATGIPDRFSGSGSGTDFTLTISRLEPEDFAVYYCQQYGSSPLYTFGQGTKLEIK
As to B1, the binding result is on record as “no binding (tested: about 10 µg/ml (antigen))” with huBTN3A2; “no binding (tested: 10 µg/ml (antigen))” with huB7-H2; “no binding (tested: about 10 µg/ml (antigen))” with huHHLA2; “no binding (tested: 10 µg/ml (antigen))” in the assay with huB7-H1; “no binding (tested: 10 µg/ml (antigen))” with huBTN1A1; “no binding” in the assay with huB7-H3.

B2: ZY0EOB-F05 murine IgG1 (antibody, V domains shown)
VH: QVQLQESGPGLVKPSQTLSLTCTVSDGSISSGGYYWSWIRQHPGKGLEWIGNIYYSGSTYYNPSLKSRVTISVDTSKNQFSLKLNSVTAADTAVYYCATEKALATVTPSGYENYYTVDVWGQGTTVTVSS
VL: DIQLTQSPSFLSASVGDRVTITCWASQGISSYLAWYQQKPGKAPKLLIYAASTLQSGVPSRFSGSGSGTEFTLTISSLQPEDFATYYCQHLNSYPLTFGGGTKVEIK
As to B2, the binding result with huBTN3A2 is given as “no binding (tested: about 10 µg/ml (antigen))”; in the assay with huB7-H2 it was “no binding (tested: 10 µg/ml (antigen))”; with huBTNL3 it was “no binding”; in the assay with huBTN2A1 it was “no binding”; with huHHLA2 it was “no binding (tested: about 10 µg/ml (antigen))”; with huB7-H1, “no binding (tested: 10 µg/ml (antigen))”. In addition, the values for the binding result with huBTN1A1 and in the assay with huB7-H3 were “no binding (tested: 10 µg/ml (antigen))” and “no binding”, respectively. Also, the concentration for a half-maximal effect (EC50) stood at 0.32 nM in assay [1], 0.3 nM in assay [2] and 0.38 nM in assay [3]. Besides, the results for the Max in assay [1], in assay [2] and in [3] were 2400, 3020 and 2190, respectively.

B3: human ZY0EOB-F05 (antibody, V domains shown)
VH: QVQLQESGPGLVKPSQTLSLTCTVSDGSISSGGYYWSWIRQHPGKGLEWIGNIYYSGSTYYNPSLKSRVTISVDTSKNQFSLKLNSVTAADTAVYYCATEKALATVTPSGYENYYTVDVWGQGTTVTVSS
VL: DIQLTQSPSFLSASVGDRVTITCWASQGISSYLAWYQQKPGKAPKLLIYAASTLQSGVPSRFSGSGSGTEFTLTISSLQPEDFATYYCQHLNSYPLTFGGGTKVEIK
On to B3, for which the binding result with huBTN3A2 is listed as “no binding (tested: about 10 µg/ml (antigen))”; in the assay with huB7-H2 it was “no binding (tested: 10 µg/ml (antigen))”; with huHHLA2, “no binding (tested: about 10 µg/ml (antigen))”; in the assay with huB7-H1 it was “no binding (tested: 10 µg/ml (antigen))”; with huBTN1A1 it was “no binding (tested: 10 µg/ml (antigen))”; in the assay with huB7-H3, “no binding”.

B4: human ZY0EO5-E07 (antibody, V domains shown)
VH: QVQLQESGPGLVKPSQTLSLTCTVSGGSISSGGYYWSWIRQHPGKGLEWIGNIYYSGSTYYNPSLKSRVTISVDTSKNQFSLKLSSVTAADTAVYYCAREKALASVIPSGYENYYVVDVWGQGTTVTVSS
VL: DIQLTQSPSFLSASVGGRVTITCWASQGIAGYLAWYQQKPGKAPKLLIYAASTLQSGVPSRFSGSGSGTEFTLTISSLQPEDFATYYCQHLNSYPLTFGGGTKVEIK
Consider B4, for which the binding result with huBTN3A2 was “no binding (tested: about 10 µg/ml (antigen))”; with huB7-H2 it was “no binding (tested: 10 µg/ml (antigen))”; with huHHLA2, “no binding (tested: about 10 µg/ml (antigen))”; in the assay with huB7-H1 it was “no binding (tested: 10 µg/ml (antigen))”; in the assay with huBTN1A1, “no binding (tested: 10 µg/ml (antigen))”; with huB7-H3, “no binding”.

B5: human ZY0EPQ-E02 (antibody, V domains shown)
VH: QVQLQQWGAGLLKPSETLSLTCAVYGGSFSGYYWNWIRQPPGKGLEWIGEINHSGSTNYNPSLKSRVTILVDTSKNQFSLKLSSVTAADTAVYYCARNLYNWNLDSWGQGTLVTVSS
VL: DIQMTQSPSSLSASVGDRVTITCRASQGIRNDLGWYQQKPGRAPKRLIYVASSLQSGVPSRFSGSGSGTEFTLTISSLQPEDFATYYCLQHNSYPRTFGQGTKVEIK
As to B5, the binding result in the assay with huBTN3A2 is given as “no binding (tested: about 10 µg/ml (antigen))”; with huB7-H2, “no binding (tested: 10 µg/ml (antigen))”; with huHHLA2, “no binding (tested: about 10 µg/ml (antigen))”; in the assay with huB7-H1, “no binding (tested: 10 µg/ml (antigen))”; with huBTN1A1, “no binding (tested: 10 µg/ml (antigen))”; with huB7-H3 it was “no binding”.

As a reminder, the EC50 is the concentration giving half of the maximal effect. A high value points to lower potency in that assay.
